This note sets out measurements from patent publication US20190016790A1 (MEDICINAL BIOCONVERGENCE RESEARCH CENTER, published 2019).

Test [1] addresses T1, recombinant PICP protein (procollagen type I C-terminal propeptide), heterotrimer of two PICP α1 chains and … (human, UniProt P02452 1219-1464; P08123 1120-1366).
T1 construct: Biotinylated for the yeast Fab selection; also called recombinant PICP antigen; PIPC; not shown: 8xHis tag conjugated to the N-terminus of the α1 chain; c-Myc tag conjugated to the N-terminus of the α2 chain
The test can be described thus: SPR, Biacore 2000, PICP immobilized (185 RU), IgG 6.25-100 nM. The text has this: Specific experiment conditions are as follows.
The affinity was obtained from kinetic rate constants (ka and kd) and equilibrium dissociation constants (KD) using BIA evaluation ver. 3.2 software.

In test [2] the target is T2, recombinant procollagen type III C-terminal propeptide (PIIICP), His-tagged (UniProt P02461 1222-1466).
T2 construct: domain: C-terminal propeptide; Made in HEK293F cells in the same way as PICP; also called comparative antigen; not shown: His tag conjugated to the PIIICP protein
T2 sequence (looked up): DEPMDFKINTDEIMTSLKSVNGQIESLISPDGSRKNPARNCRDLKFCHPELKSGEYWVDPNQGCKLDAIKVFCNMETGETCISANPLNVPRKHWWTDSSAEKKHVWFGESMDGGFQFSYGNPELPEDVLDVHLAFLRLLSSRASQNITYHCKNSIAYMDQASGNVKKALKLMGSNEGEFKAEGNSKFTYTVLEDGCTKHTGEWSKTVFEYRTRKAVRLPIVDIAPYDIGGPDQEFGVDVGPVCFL
The test can be described thus: sandwich ELISA, 2D IgG coated at 16 ug/ml as capture antibody, PIIICP titrated, rabbit anti-PICP antibody and goat anti-rabbit IgG-HRP for detection.

In test [3] the target is T2, recombinant procollagen type III …. The test can be described thus: indirect ELISA, PIIICP coated at 2 ug/ml, anti-human IgG-HRP. As for the experimental part:
PICP and PIIICP antigens prepared in <Example 1> were immobilized at a concentration of 2 ug/ml on microtiter plates at room temperature for 1 hour, and blocked with 1×PBST containing 2% skim milk at room temperature for 1 hour. 2D IgG and 4G IgG were serially diluted within a range of 15.625-1000 ng/ml, and added at 100 μl per well to the blocked plates, followed by incubation at room temperature for 1 hour. Human IgG-HRP antibodies (Millipore, 1:2,000) as secondary antibodies were added at 10 μl per well, followed by incubation at room temperature for 1 hour. The incubated microtiter plates were washed three or four times with 1×PBST, and then TMB solution was added at 50 μl per well to conduct a color development reaction at room temperature for 5-10 minutes. The color development reaction was stopped using H₂SO₄ (1 M), and then the absorbance was read at 450 nm using ELISA reader.

Test [4] has as its target T1, recombinant PICP protein (procollagen …). The test can be described thus: indirect ELISA, PICP coated at 2 ug/ml, anti-HA-HRP. (ELISA stands for enzyme-linked immunosorbent assay.)
Test [5] shares this target. The test can be described thus: yeast surface Fab display, MACS and FACS with biotinylated PICP. As for the experimental part: A method of selecting clones specifically binding to PICP proteins from the yeast Fab library are as follows: Antigen protein PICP and similar protein PIIICP were prepared with purity of 99% or higher by the method of the present invention. The PICP proteins were conjugated to biotin using a kit (EZ-LINKTMSulfo-NHS-LC-Biotinylation kit, Pierce Inc., USA). Thereafter, a procedure of screening the constructed libraries using MACS and FACS and analyzing the induced pool was repeated. Through this, the expression level of antibody Fab and the binding affinity of biotinylated PICP can be analyzed.
The biotinylated PICP (500 nM) was conjugated to Fab library expressed on the yeast cell surface at 25° C. for 1 hour. The Fab library incubated with PICP was conjugated with streptavidin-microbead (Miltenyi Biotec Inc., Germany) at 4° C. for 10 minutes, and then clones conjugated with the biotinylated PICP were selected using magnetic-activated cell sorting (MACS). […] Thereafter, FACS procedure was twice repeated using biotinylated PICP with concentrations of 250 nM and 100 nM. […]

Test [6] has the same target. The test can be described thus: sandwich ELISA, IgG coated as capture antibody, PICP titrated, polyclonal PICP antibody and anti-rabbit-HRP for detection. As for the experimental part: The binding specificity to PICP by IgG fragment having VH and VL of clones 1 and 2 (referred to as clone IgG and clone 2 IgG) was investigated by sandwich ELISA (FIG. 9).
2D, 4G, clone 1, clone 2 IgG antibodies as capture antibodies were coated on the microtiter plates, and PICP and PIIICP as antigens were added to each well (100 μl/well) at different concentrations, followed by incubation for 1 hour. After washing with 1×PBST (0.05 Tween 20), detection antibodies (polyclonal PICP antibodies) were diluted with 1×PBST, and added in 100 μl for each, followed by incubation for 1 hour. After washing with 1×PBST, rabbit-HRP (Millipore) antibodies were diluted with 1×PBST, and added in 100 μl for each, followed by incubation for 1 hour. After washing with 1×PBST, TMB solution was added to each well (50 μl/well) to investigate a color development reaction, and then the reaction was stopped by addition of 50 μl of 2N stop solution (H₂SO₄). The absorbance was read at a wavelength of 450 nm using ELISA reader (reference 620 nm).

Test [7] addresses T3, recombinant PICP α2 chain (c-Myc tag at the N-terminus) (human, UniProt P08123 1120-1366).
T3 construct: Co-expressed with the α1 chain in HEK293F cells; also called recombinant procollagen α2 chain; not shown: c-Myc tag at the N-terminus
T3 sequence: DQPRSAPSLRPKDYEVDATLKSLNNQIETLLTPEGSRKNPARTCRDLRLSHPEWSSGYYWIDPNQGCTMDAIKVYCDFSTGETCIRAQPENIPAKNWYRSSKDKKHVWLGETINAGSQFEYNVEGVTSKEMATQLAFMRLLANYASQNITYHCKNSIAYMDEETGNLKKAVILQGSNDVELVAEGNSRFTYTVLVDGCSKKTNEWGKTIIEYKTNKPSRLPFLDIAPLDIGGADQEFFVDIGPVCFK
The test can be described thus: Western blot (anti-His, anti-c-Myc) of Ni/NTA-purified recombinant PICP, non-reducing and reducing SDS-PAGE. As for the experimental part: The pSecTag2A-PICP α1 vector and the pSecTag2A-PICP α2 vector were mixed at a molar ratio of 2:1, and co-transfected into HEK293F cells. The co-transfected cells were cultured for 7 days, and culture supernatants were harvested, and the proteins were isolated and purified by the same method as in example <1-2>. PIIICP protein was also expressed, isolated, and purified by the same method. The sizes and purities of the purified proteins were analyzed using SDS-PAGE and western blotting (anti-His tag, anti-c-Myc tag) in reducing or non-reducing conditions.
On the technique in general: In western blotting, separated proteins are transferred to a membrane and probed.

Changes are numbered by the printed parent chain.

B1: 2D IgG (antibody, V domains shown)
VH: EVQLLESGGGLVQPGGSLRLSCAASGFTFSSYYMSWVRQAPGKGLEWVSGISPGSGSKYYADSVKGRFTISRDNSKNTLYLQMNSLRAEDTAVYYCARATVPCKGPACYSAYGMDVWGQGTLVTVSS
VL: QSVLTQPPSAPGTPGQRVTISCSGSSSNIGNNAVNWYQQLPGTAPKLLIYSNSHRPSGVPDRFSGSKSGTSASLAISGLRSEDEADYYCGSWDASLNGYVFGGGTKLTVLG
notes: IgG made from 2D scFv VH and VL in pcDNA3.4 and expressed in 293F cells; Detected with human IgG-HRP; also called IgG containing the variable regions of clone 2D
A word on the Kd: it is the concentration at which binding is half-saturated. By koff is commonly meant a measure of how fast the partners let go of each other. Broadly, the kon is the rate constant with which the complex forms. As to B1, in test [1], the Kd came to 11.6 nM, the off-rate constant (koff) came out at 0.00276 s⁻¹ and the kon amounted to 237000 M⁻¹ s⁻¹. For the same molecule, the binding result in test [2] is on record as “no binding (tested: 100 ng/ml)”.

B2: 4G IgG (antibody, V domains shown)
VH: EVQLLESGGGLVQPGGSLRLSCAASGFTFSNYYMSWVRQAPGKGLEWVSLISSGNGNKYYADSVKGRFTISRDNSKNTLYLQMNSLRAEDTAVYYCARGSRRCSGAPCYSAYGMDVWGQGTLVTVSS
VL: B1 VL with P11S, S23T, A33S, N35T, S51A, H54Q, S91A, A94D, G98A
notes: IgG made from 4G scFv VH and VL in pcDNA3.4 and expressed in 293F cells; Detected with human IgG-HRP; also called IgG containing the variable regions of clone 4G
Turning to B2, in test [1], the Kd amounted to 16.8 nM, the koff came out at 0.00319 s⁻¹ and the on-rate (kon) came to 190000 M⁻¹ s⁻¹. The binding result in test [3] was “no binding (tested: 1000 ng/ml)”.

B3: 4G scFv (scFv)
chain: EVQLLESGGGLVQPGGSLRLSCAASGFTFSNYYMSWVRQAPGKGLEWVSLISSGNGNKYYADSVKGRFTISRDNSKNTLYLQMNSLRAEDTAVYYCARGSRRCSGAPCYSAYGMDVWGQGTLVTVSSGGGGSGGGGSGGGGSQSVLTQPPSASGTPGQRVTISCTGSSSNIGNNSVTWYQQLPGTAPKLLIYANSQRPSGVPDRFSGSKSGTSASLAISGLRSEDEADYYCGAWDDSLNAYVFGGGTKLTVLG
The term EC50 (read off the curve) denotes the midpoint of the concentration-response curve. For the molecule B3, the “EC50 (read off the curve)” value in test [4] is around 0.1 µg/mL.

B4: clone 1 Fab (Fab, V domains shown)
VH: EVQLVESGGGLVQPGGSLRLSCAASGFTFSYYWMSWVRQAPGKGLEWVSTISYGGGGKYYADSVKGRFTISRDNSKNTLYLQMNSLRAEDTAVYYCVRSYGAIPPNTIDYWGQGTLVTVSS
VL: DIQMTQSPSSLSASVGDRVTITCRASQGISSDLAWYQQKPGKAPKLLIYAASSLQSGVPSRFSGSGSGTDFTLTISSLQPEDFATYYCQQPYSTPSTFGQGTKVEIK
Turning to B4, in test [5], the binding result is reported as “binds”.

B5: clone 2 IgG (antibody, V domains shown)
VH: EVQLVESGGGLVQPGGSLRLSCAASGFTFSSYWMSWVRQAPGKGLEWVSVISYDGGNKYYADSVKGRFTISRDNSKNTLYLQMNSLRAEDTAVYYCAKWANDHNSDLNFDYWGQGTLVTVSS
VL: DIQMTQSPSSLSASVGDRVTITCRASQGISTDLGWYQQKPGKAPKLLIYAASSLESGVPSRFSGSGSGTDFTLTISSLQPEDFATYYCQQHDSYPTTFGQGTKVEIKR
notes: Chimeric: human Fab VH and VL of yeast clone 2 on mouse IgG2a heavy chain constant domains and mouse kappa light chain
Turning to B5, in test [6], the binding result is “binds”.

B6: clone 2 Fab (Fab, V domains shown)
VH: B5 VH
VL: B4 VL with S31T, A34G, Q55E, P91H, Y92D, T94Y, S96T
Take B6: the binding result in test [5] was “binds”.

B7: clone 1 IgG (antibody, V domains shown)
VH: B4 VH
VL: B5 VL with T31S, G34A, E55Q, H91P, D92Y, Y94T, T96S
notes: Chimeric: human Fab VH and VL of yeast clone 1 on mouse IgG2a heavy chain constant domains and mouse kappa light chain; also called clone IgG
Turning to B7, the binding result in test [6] was “binds”.

B8: recombinant PICP α1 chain (8xHis tag at the N-terminus) (other)
chain: DDANVVRDRDLEVDTTLKSLSQQIENIRSPEGSRKNPARTCRDLKMCHSDWKSGEYWIDPNQGCNLDAIKVFCNMETGETCVYPTQPSVAQKNWYISKNPKDKRHVWFGESMTDGFQFEYGGQGSDPADVAIQLTFLRLMSTEASQNITYHCKNSVAYMDQQTGNLKKALLLQGSNEIEIRAEGNSRFTYSVTVDGCTSHTGAWGKTVIEYKTTKTSRLPIIDVAPLDVGAPDQEFGFDVGPVCFL
notes: Co-expressed with the α2 chain in HEK293F cells; also called recombinant procollagen α1 chain; not shown: 8xHis tag at the N-terminus
Regarding B8, the binding result in test [7] was “binds”.

B9: 2D scFv (scFv)
chain: EVQLLESGGGLVQPGGSLRLSCAASGFTFSSYYMSWVRQAPGKGLEWVSGISPGSGSKYYADSVKGRFTISRDNSKNTLYLQMNSLRAEDTAVYYCARATVPCKGPACYSAYGMDVWGQGTLVTVSSGGGGSGGGGSGGGGSQSVLTQPPSAPGTPGQRVTISCSGSSSNIGNNAVNWYQQLPGTAPKLLIYSNSHRPSGVPDRFSGSKSGTSASLAISGLRSEDEADYYCGSWDASLNGYVFGGGTKLTVLG
Turning to B9, the “EC50 (read off the curve)” value in test [4] is around 0.3 µg/mL.
